According to PMC11346345 (Cell reports, 2024):

Columns and labels:
Assay in all cases: SPR
[1] = target: recombinant GP38 of CCHFV Oman-199809166 (Crimean-Congo hemorrhagic fever virus, …, UniProt A0A0U3C6Q7, strain)
[2] = target: recombinant GP38 of CCHFV Kosova-Hoti (Crimean-Congo hemorrhagic fever virus, …, UniProt B2BSL7, strain)
[3] = target: recombinant GP38 of CCHFV 200406546-Turkey (Crimean-Congo hemorrhagic fever virus, …, UniProt A0A0U2SQZ0, strain)

Measured: Kd

B1: ADI-58048 IgG (antibody, V domains shown)
VH: QLQLQESGPGLVKPSETLSLTCTVSGGSITTSHYYWGWIRQPPGKGLEWVGSMYYSGGIYYNPSLKGRVTISVDTSKNQFSLKLSSVTAADTAVYYCALADAPDDAFDIWGQGTMVTVSS
VL: DIQMTQSPSSLSAFVGDRVTITCRASQSISSYLNWYQQKPGKAPKLLIYAASTLQSGVPSRFSGSGSGTDFTLTISSLQSEDFATYYCQESYSIPFTFGPGTKVDIK
< 0.398 nM: [1] | [2] | [3]
